Experimental data from patent US20240287172A1 (SCIRHOM, published 2024).
Residue numbers refer to the chain shown, from its start.

T1: hiR2-FL-F588A-T7 (human, UniProt Q6PJF5 1-856)
T1 sequence: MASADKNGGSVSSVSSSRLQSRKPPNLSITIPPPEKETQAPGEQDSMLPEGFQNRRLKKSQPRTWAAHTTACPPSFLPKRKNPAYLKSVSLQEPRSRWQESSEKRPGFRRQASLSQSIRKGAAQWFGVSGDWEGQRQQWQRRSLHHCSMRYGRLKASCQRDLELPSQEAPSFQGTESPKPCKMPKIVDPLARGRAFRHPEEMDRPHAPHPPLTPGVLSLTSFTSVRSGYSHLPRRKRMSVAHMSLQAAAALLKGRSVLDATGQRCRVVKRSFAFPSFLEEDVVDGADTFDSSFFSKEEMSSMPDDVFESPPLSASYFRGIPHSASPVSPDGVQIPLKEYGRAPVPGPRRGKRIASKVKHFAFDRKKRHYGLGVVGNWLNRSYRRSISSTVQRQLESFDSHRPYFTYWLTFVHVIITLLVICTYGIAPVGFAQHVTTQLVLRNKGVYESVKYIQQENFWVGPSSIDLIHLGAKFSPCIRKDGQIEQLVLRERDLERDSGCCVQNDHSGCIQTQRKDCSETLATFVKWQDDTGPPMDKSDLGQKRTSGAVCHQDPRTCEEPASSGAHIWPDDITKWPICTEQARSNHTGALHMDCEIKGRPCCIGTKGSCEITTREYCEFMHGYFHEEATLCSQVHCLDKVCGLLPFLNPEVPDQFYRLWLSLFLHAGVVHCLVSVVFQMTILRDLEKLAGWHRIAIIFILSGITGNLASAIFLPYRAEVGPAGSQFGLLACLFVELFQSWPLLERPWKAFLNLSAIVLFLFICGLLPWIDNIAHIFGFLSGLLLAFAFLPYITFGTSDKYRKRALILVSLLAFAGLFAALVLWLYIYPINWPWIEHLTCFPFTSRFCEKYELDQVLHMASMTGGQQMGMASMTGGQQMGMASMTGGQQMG

T2: hiR2-FL-I566A-T7 (human, UniProt Q6PJF5 1-856)
T2 sequence: T1 sequence with I566A, A588F

B1: antibody 48 (antibody, V domains shown)
VH: QVQLQQSGTELVRPGTSVKVSCKASGYAFTNYLIEWVKQRPGQGLEWIGVINPGSGFTKYNEKFKGKATLTADKSSSTVYMHLSSLTSEDSAVYFCARGLYRAMDYWGQGTSVTVSS
VL: DIQMTQSPASQSASLGESVTITCLASQTIATWLAWYQQKPGKSPQLLIYGATTLADGVPSRFSGGGSGTKFSFKISSLQAEDFVSYYCQQLYSTPYTFGGGTKLEIK
notes: mouse IgG, kappa light chain; also called clone #48; purified antibody 48
B2: antibody 34 (antibody, V domains shown)
VH: QVTLKESGPGILQPSQTLSLTCSFSGFSLSTFSLGVGWIRQSSGKGLEWLAHIWWDDEKYYNPALKSRLTISKDTSKNQVFLKIANVDAADTATYYCARAYYSKSYYALDYWGQGTSVTVSS
VL: DIQMTQSPSSLSASLGERVSLTCRASQEISGYLSWLQQKPDGTIKRLIYAASTLDSGVPKRFSGSRSGSDYSLAISSLESEDFADYYCLQYANFPFTFGSGTKLEIK
notes: mouse IgG, kappa light chain; also called clone #34; purified antibody 34

Assays:
hiR2-FL-F588A-T7 = molecular target: T1, hiR2-FL-F588A-T7; experiment: FACS on MEF-DKO cells expressing the variant, 3 µg/ml antibody
Outline: (§1)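 Read-out is PE fluorescence by flow cytometry after two-step staining: antibody at 3 μg/ml for 1 hour on ice, then PE-labelled goat anti-mouse IgG F(ab′)2 (1:100) for 1 hour on ice.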

hiR2-FL-I566A-T7 = molecular target: T2, hiR2-FL-I566A-T7; experiment: as above
Outline: as §1

| Binder | loss of binding vs wild type (hiR2-FL-F588A-T7) [%] | loss of binding vs wild type (hiR2-FL-I566A-T7) [%] |
| --- | --- | --- |
| B1 | ≥ 30 | – |
| B2 | – | ≥ 30 |
